Assay [1] concerns the target α4β1 integrin (VLA-4) (UniProt P13612). Briefly: HEL cell adhesion to coated human ICAM-4Fc (2.5 ug/ml), peptide 750 uM; competitor human ICAM-4Fc.
For assay [2] the target is unchanged. As to the kind of experiment: HEL cell adhesion to coated human ICAM-4Fc (2.5 ug/ml); value is for the MIXTURE of SEQ ID NO: 9 and 11, each peptide 750 uM.
For assay [3] the target is unchanged. As to the kind of experiment: HEL cell adhesion to coated human ICAM-4Fc (2.5 ug/ml); value is for the MIXTURE of SEQ ID NO: 10 and 11, each peptide 750 uM.
Assay [4] shares this target. As to the kind of experiment: HEL cell adhesion to coated human ICAM-4Fc (2.5 ug/ml); value is for the MIXTURE of SEQ ID NO: 9, 10 and 11, each peptide 750 uM.
Assay [5] shares this target. As to the kind of experiment: HEL cell adhesion to coated human ICAM-4Fc (2.5 ug/ml); value is for the MIXTURE with control peptide SEQ ID NO: 13, each peptide 750 uM.
Assay [6] shares this target. As to the kind of experiment: HEL cell adhesion to coated human ICAM-4Fc (2.5 ug/ml); value is for the MIXTURE of SEQ ID NO: 9, 11 and control peptide 13, each peptide 750 uM.
Assay [7] has the same target. Briefly: HEL cell adhesion to coated human ICAM-4Fc (2.5 ug/ml); value is for the MIXTURE of SEQ ID NO: 10, 11 and control peptide 13, each peptide 750 uM.
Assay [8] shares this target. Briefly: HEL cell adhesion to coated human NCAMFc (control), no peptide.
The target is the same in assay [9]. Briefly: HEL cell adhesion to coated human ICAM-4Fc (5 ug/ml), peptide 500 uM; competitor human ICAM-4Fc.
Assay [10] shares this target. As to the kind of experiment: HEL cell adhesion to coated murine ICAM-4Fc (5 ug/ml), peptide 500 uM; competitor murine ICAM-4Fc.
For assay [11] the target is unchanged. Briefly: HEL cell adhesion to coated human ICAM-4Fc (5 ug/ml); value is for the MIXTURE of SEQ ID NO: 9 and 10, each peptide 500 uM.
For assay [12] the target is unchanged. As to the kind of experiment: HEL cell adhesion to coated murine ICAM-4Fc (5 ug/ml); value is for the MIXTURE of SEQ ID NO: 9 and 10, each peptide 500 uM.
Assay [13] shares this target. As to the kind of experiment: HEL cell adhesion to coated human ICAM-4Fc (2.5 ug/ml); value is for the MIXTURE of SEQ ID NO: 9 and 10, each peptide 750 uM.
Assay [14] has the same target. Briefly: HEL cell adhesion to coated human ICAM-4Fc (5 ug/ml); value is for the MIXTURE with control peptide SEQ ID NO: 13, each peptide 500 uM.
The target is the same in assay [15]. Briefly: HEL cell adhesion to coated murine ICAM-4Fc (5 ug/ml); value is for the MIXTURE with control peptide SEQ ID NO: 13, each peptide 500 uM.
The target is the same in assay [16]. Briefly: HEL cell adhesion to coated human ICAM-4Fc (2.5 ug/ml); value is for the MIXTURE of SEQ ID NO: 9, 10 and control peptide 13, each peptide 750 uM.

α4β1 integrin (VLA-4), sequence (P13612 34-1032, chain 1 of 2): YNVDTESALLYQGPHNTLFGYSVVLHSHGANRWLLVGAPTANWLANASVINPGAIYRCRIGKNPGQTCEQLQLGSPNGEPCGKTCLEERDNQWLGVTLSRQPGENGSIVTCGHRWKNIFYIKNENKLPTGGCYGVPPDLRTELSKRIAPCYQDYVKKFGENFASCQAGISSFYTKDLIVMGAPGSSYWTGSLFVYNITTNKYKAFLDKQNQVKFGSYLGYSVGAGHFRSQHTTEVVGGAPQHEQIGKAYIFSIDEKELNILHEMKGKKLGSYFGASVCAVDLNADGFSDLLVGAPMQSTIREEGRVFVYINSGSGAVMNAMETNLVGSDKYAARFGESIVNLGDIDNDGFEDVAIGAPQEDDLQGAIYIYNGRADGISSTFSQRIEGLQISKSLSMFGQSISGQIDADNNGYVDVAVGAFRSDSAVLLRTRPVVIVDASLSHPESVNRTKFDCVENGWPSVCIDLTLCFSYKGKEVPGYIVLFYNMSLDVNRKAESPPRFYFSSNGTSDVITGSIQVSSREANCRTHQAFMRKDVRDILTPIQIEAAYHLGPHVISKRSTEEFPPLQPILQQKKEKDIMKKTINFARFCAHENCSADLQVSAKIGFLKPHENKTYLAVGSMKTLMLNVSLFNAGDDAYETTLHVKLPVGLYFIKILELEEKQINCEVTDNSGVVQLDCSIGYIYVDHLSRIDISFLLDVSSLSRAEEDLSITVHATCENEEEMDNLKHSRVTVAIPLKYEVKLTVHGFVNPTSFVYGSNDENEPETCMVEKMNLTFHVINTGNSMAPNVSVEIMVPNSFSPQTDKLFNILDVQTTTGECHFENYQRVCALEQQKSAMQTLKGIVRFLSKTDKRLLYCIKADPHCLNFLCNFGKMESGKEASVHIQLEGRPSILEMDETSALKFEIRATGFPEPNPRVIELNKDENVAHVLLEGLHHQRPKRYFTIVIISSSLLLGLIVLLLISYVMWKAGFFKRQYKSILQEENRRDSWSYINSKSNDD
α4β1 integrin (VLA-4), sequence (P05556 21-798, chain 2 of 2, further chain): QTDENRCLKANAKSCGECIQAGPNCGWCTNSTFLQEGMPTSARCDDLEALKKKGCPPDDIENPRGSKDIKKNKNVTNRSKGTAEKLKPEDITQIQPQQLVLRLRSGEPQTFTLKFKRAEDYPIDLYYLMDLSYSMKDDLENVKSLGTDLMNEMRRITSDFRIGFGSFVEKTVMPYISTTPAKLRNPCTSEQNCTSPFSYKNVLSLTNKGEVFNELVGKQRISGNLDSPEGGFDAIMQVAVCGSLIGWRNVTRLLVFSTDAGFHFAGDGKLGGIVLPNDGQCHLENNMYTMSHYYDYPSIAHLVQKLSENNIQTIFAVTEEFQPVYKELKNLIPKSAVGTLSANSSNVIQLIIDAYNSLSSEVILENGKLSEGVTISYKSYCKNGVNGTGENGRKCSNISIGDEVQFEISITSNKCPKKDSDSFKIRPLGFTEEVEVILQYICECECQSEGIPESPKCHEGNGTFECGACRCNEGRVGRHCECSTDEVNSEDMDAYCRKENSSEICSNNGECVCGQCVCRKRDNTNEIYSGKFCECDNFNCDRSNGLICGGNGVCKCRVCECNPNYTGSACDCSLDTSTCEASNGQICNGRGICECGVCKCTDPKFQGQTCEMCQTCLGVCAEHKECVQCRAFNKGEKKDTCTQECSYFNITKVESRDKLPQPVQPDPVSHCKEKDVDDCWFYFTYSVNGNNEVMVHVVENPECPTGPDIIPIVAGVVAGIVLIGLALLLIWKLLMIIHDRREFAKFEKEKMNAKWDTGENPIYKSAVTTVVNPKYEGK

Consider aWssLahcl peptide (SEQ ID NO: 11), for which the input cells bound as % of binding to ICAM-4Fc in the absence of peptides in assay [1] was determined as 50%; in assay [2] it was 43%; in [3], 41%; in assay [4], 42%; in [5], 46%; in [6], 42%. Besides, the input cells bound as % of binding to ICAM-4Fc in the absence of peptides in assay [7] came out at 40%.

Regarding “human NCAMFc (from UniProt P13591 20-718) (Fc fusion)”, in assay [8], the input cells bound as % of binding to ICAM-4Fc in the absence of peptides was 3% and the input cells bound as % of binding to murine ICAM-4Fc in the absence of peptides was determined as 19%.

Consider svpFWVrms peptide (SEQ ID NO: 9), for which the input cells bound as % of binding to ICAM-4Fc in the absence of peptides in [9] worked out at 61%; in [1] it was 64%; in assay [11] it was 35%; in assay [13], 52%; in assay [2] it was 43%; in assay [4] it was 42%. Besides, the input cells bound as % of binding to ICAM-4Fc in the absence of peptides in assay [14] amounted to 60%; in [5] it was 59%; in [16] it was 49%; in assay [6], 42%. Further, the input cells bound as % of binding to murine ICAM-4Fc in the absence of peptides in assay [10] was 67%; in assay [12], 47%; in [15], 70%.

In the case of tRwATSRit peptide (SEQ ID NO: 10), the input cells bound as % of binding to ICAM-4Fc in the absence of peptides in assay [9] amounted to 58%; in assay [1], 58%; in [11] it was 35%; in assay [13], 52%; in [3], 41%; in assay [4], 42%. Further, the input cells bound as % of binding to ICAM-4Fc in the absence of peptides in assay [14] was 56%; in assay [5], 55%; in assay [16], 49%; in assay [7], 40%. Besides, the input cells bound as % of binding to murine ICAM-4Fc in the absence of peptides in [10] worked out at 58%; in assay [12], 47%; in assay [15] it was 55%.

For the origin of these results see patent publication US20060252116A1, “Icam-4 binding sites” (priority 2002, published 2006).
